# According to the supplement of paper PMC10567573:
# B1: ZNF8 (parent)
# chain: KPYTCSVCGKSFSRTTCLFLHLRT
# Variants of: B1
# Test: protein stability index of a GFP-peptide fusion (GPS, HEK-293T) (PSI 1-6); higher = more stable
# Conditions: c terminus: a fixed tail appended
# 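Further: lentivirally expressed fusions sorted by FACS into six bins by GFP to DsRed ratio, PSI derived from sequencing read proportions per bin multiplied by bin number.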
row,Variant,protein stability index
1,KPYTCSVCGKSFSRTTCLFQHLRT [L20Q],2.96
2,KPYTCSVCGKSFSRTTCLFDHLRT [L20D],2.11
3,KPYTCSVCGKSFSRTTCLFAHLRT [L20A],2.66
4,KPYTTSVCGKSFSRTTCLFLHLRT [C5T],3.19
5,KPYTQSVCGKSFSRTTCLFLHLRT [C5Q],2.29
6,KPYTGSVCGKSFSRTTCLFLHLRT [C5G],3.6
7,KPYTASVCGKSFSRTTCLFLHLRT [C5A],1.97
8,KPYTKSVCGKSFSRTTCLFLHLRT [C5K],3.15
9,KPYTSSVCGKSFSRTTCLFLHLRT [C5S],1.56
10,KPYTPSVCGKSFSRTTCLFLHLRT [C5P],2.38
11,KPYTLSVCGKSFSRTTCLFLHLRT [C5L],3.52
12,KPYTWSVCGKSFSRTTCLFLHLRT [C5W],2.06
13,KPYTMSVCGKSFSRTTCLFLHLRT [C5M],2.18
14,KPYTCSVCGKSFSRTTCLFLHLMT [R23M],2.23
15,KPYTCSVCGKSFSRTTCLFLHLYT [R23Y],1.84
16,KPYTCSVCGKSFSRTTCLFLHLAT [R23A],2.29
17,KPYTCSVCGKSFSRTTCLFLHLVT [R23V],2
18,KPYTCSVCGKSFSRTTCLFLHLTT [R23T],1.95
19,KPYTCSVCGKSFSRTTCLFLHLIT [R23I],2.05
20,KPYTCSVCGKSFSRTTCLFLHLCT [R23C],2.06
21,KPYTCSVCGKSFSRTTCLFLHLST [R23S],1.83
22,KPYTCSVCGKSFSRTTCLFLHLGT [R23G],1.9
23,KPYTCSVCGKSFSRTTCLFLHLET [R23E],2.26
24,KPYTCSVCGKSFSRTKCLFLHLRT [T16K],1.56

row,Variant,protein stability index
1,KPYTCSVCGKSFSRTACLFLHLRT [T16A],2.16
2,KPYTCSVCGKSFSRTHCLFLHLRT [T16H],2.36
3,KPYTCSVCGKSFSRTSCLFLHLRT [T16S],2.17
4,KPYTCSVCGKSFSRTQCLFLHLRT [T16Q],2.73
5,KPYTCSVCGKSFSRTCCLFLHLRT [T16C],1.94
6,KPYTCSVCGKSFSRTNCLFLHLRT [T16N],2.73
7,KPYTCSVCGKSFSRTYCLFLHLRT [T16Y],2.03
8,KPYTCSVCGKSFSRTMCLFLHLRT [T16M],1.98
9,KPYTCSVCGKSFSRTTCLFLHLRG [T24G],2.37
10,KPYTCSVCGKSFSRTTCLFLHLRC [T24C],2.07
11,KPYTCSVCGKSFSRTTCLFLHLRS [T24S],1.89
12,KPYTCSVCGKSFSRTTCLFLHLRV [T24V],2.2
13,KPYTCSVCGKSFSRTTCLFLHLRP [T24P],2.19
14,KPYTCSVCGKSFSRTTCLFLHLRF [T24F],2.02
15,KPYTCSVCGKSFSRTTCLFLHLRM [T24M],2.44
16,KPYACSVCGKSFSRTTCLFLHLRT [T4A],1.43
17,KPYVCSVCGKSFSRTTCLFLHLRT [T4V],1.69
18,KPYNCSVCGKSFSRTTCLFLHLRT [T4N],1.67
19,KPYYCSVCGKSFSRTTCLFLHLRT [T4Y],1.63
20,KPYDCSVCGKSFSRTTCLFLHLRT [T4D],2.75
21,KPYFCSVCGKSFSRTTCLFLHLRT [T4F],1.9
22,KPYPCSVCGKSFSRTTCLFLHLRT [T4P],1.86
23,KPYICSVCGKSFSRTTCLFLHLRT [T4I],2.36
24,KPYTCSVCGKSFSRTTCLFLHDRT [L22D],2.04

row,Variant,protein stability index
1,KPYTCSVCGKSFSRTTCLFLHWRT [L22W],1.74
2,KPYTCSVCGKSFSRTTCLFLHNRT [L22N],2.57
3,KPYTCSVCGKSFSRTTCLFLHGRT [L22G],2.03
4,KPYTCSVCGKSFSRTTCLFLHSRT [L22S],2.11
5,KPYTCSVCGKSFSRTTCLFLHPRT [L22P],2.78
6,KPYTCSVCGKSFSRTTCLFLHMRT [L22M],3.01
7,KPYTCSVCGKSFSRTTCLFLHFRT [L22F],1.82
8,KPYTCSVCGKSFSRTTCLFLHKRT [L22K],2.74
9,KPYTCSVCGKSFHRTTCLFLHLRT [S13H],1.63
10,KPYTCSVCGKSFRRTTCLFLHLRT [S13R],2
11,KPYTCSVCGKSFMRTTCLFLHLRT [S13M],1.88
12,KPYTCSVCGKSFCRTTCLFLHLRT [S13C],2.71
13,KPYTCSKCGKSFSRTTCLFLHLRT [V7K],1.75
14,KPYTCSRCGKSFSRTTCLFLHLRT [V7R],1.68
15,KPYTCSFCGKSFSRTTCLFLHLRT [V7F],2.8
16,KPYTCSNCGKSFSRTTCLFLHLRT [V7N],2.15
17,KPYTCSQCGKSFSRTTCLFLHLRT [V7Q],3.32
18,KPYTCSDCGKSFSRTTCLFLHLRT [V7D],1.71
19,KPYTCSPCGKSFSRTTCLFLHLRT [V7P],2.7
20,KPYTCSYCGKSFSRTTCLFLHLRT [V7Y],2.3
21,KPYTCSGCGKSFSRTTCLFLHLRT [V7G],2.3
22,KPYTCSMCGKSFSRTTCLFLHLRT [V7M],2.29
23,KPYTCSSCGKSFSRTTCLFLHLRT [V7S],2.04
24,KPYTCSTCGKSFSRTTCLFLHLRT [V7T],1.91

row,Variant,protein stability index
1,KPHTCSVCGKSFSRTTCLFLHLRT [Y3H],2.46
2,KPFTCSVCGKSFSRTTCLFLHLRT [Y3F],1.4
3,KPITCSVCGKSFSRTTCLFLHLRT [Y3I],1.7
4,KPGTCSVCGKSFSRTTCLFLHLRT [Y3G],1.61
5,KPVTCSVCGKSFSRTTCLFLHLRT [Y3V],2.1
6,KPPTCSVCGKSFSRTTCLFLHLRT [Y3P],1.69
7,KPLTCSVCGKSFSRTTCLFLHLRT [Y3L],2.19
8,KPATCSVCGKSFSRTTCLFLHLRT [Y3A],1.63
9,KPCTCSVCGKSFSRTTCLFLHLRT [Y3C],1.7
10,KPNTCSVCGKSFSRTTCLFLHLRT [Y3N],1.71
11,KPYTCSVCGKSFSRTTLLFLHLRT [C17L],2.39
12,KPYTCSVCGKSFSRTTILFLHLRT [C17I],2.14
13,KPYTCSVCGKSFSRTTELFLHLRT [C17E],3.61
14,KPYTCSVCGKSFSRTTFLFLHLRT [C17F],1.92
15,KPYTCSVCGKSFSRTTPLFLHLRT [C17P],1.91
16,KPYTCSVCGKSFSRTTNLFLHLRT [C17N],1.96
17,KPYTCSVCGKYFSRTTCLFLHLRT [S11Y],2.2
18,KPYTCSVCGKAFSRTTCLFLHLRT [S11A],2.08
19,KPYTCSVCGKLFSRTTCLFLHLRT [S11L],1.69
20,KPYTCSVCGKKFSRTTCLFLHLRT [S11K],2.92
21,KPYTCSVCGKVFSRTTCLFLHLRT [S11V],1.84
22,KPYTCSVCGKNFSRTTCLFLHLRT [S11N],2.12
